The values that follow are results of earlier work, collected in publication PMC4652169.

pKd: −log10 of the molar value.

The target in this data set is IgG Fc Fc (Homo sapiens) [IgG part: P01857]. In words: given as Ka.

Turning to “Protein A Z domain (ZWT) Z domain (from UniProt P02976)”, the pKd is 7.77.

One may read the pKd as the Kd on a negative log10 scale, so that one unit is a factor of ten.
